Experimental data published in patent publication US20110190477A1 (G2 INFLAMMATION, published 2011).
Where “and” joins values, the source holds several entries; their conditions need not be identical. Equal entries are not always repeated. No end group written: not given here. *: point of attachment. Biotin = O=C1N[C@H]2[C@H](CS[C@H]2CCCCC(=O)*)N1

T1: human C5a receptor (human, UniProt P21730 1-350)
T1 construct: On human neutrophils, L1.2/hC5aR transfectants or neutrophils of hC5aR knock-in mice; also called hC5aR; C5aR1
T1 chain: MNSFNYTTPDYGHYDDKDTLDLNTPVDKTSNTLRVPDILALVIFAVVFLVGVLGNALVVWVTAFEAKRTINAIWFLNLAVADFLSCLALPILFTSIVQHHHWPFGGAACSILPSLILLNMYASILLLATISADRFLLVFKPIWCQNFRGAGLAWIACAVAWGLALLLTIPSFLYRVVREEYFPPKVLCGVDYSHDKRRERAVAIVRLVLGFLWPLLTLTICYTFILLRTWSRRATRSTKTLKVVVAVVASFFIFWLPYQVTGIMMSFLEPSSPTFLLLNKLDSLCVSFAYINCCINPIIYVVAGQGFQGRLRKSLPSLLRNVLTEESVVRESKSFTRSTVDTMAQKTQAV

T2: peptide 7 (12 mer from the 2nd extracellular loop of human C5aR) (human)
T2 construct: worked out from 22 12 mers offset by one over 173-205; also called peptide no
T2 peptide: Biotin-SGSGEEYFPPKVLCGV

T3: peptide 4 (12 mer from the 2nd extracellular loop of human C5aR) (human)
T3 construct: worked out from 22 12 mers offset by one over 173-205; also called peptide no
T3 peptide: Biotin-SGSGVVREEYFPPKVL

T4: peptide 3 (12 mer from the 2nd extracellular loop of human C5aR) (human)
T4 construct: worked out from 22 12 mers offset by one over 173-205; also called peptide no
T4 peptide: Biotin-SGSGRVVREEYFPPKV

T5: peptide A8 (… with Ala at position 6, F4 of the epitope) (human)
T5 construct: The label A8 and position 6 follow from 'Peptides A2-A13 contained a single alanine substitution at each amino acid position from 12 to 1 respectively'
T5 peptide: Biotin-SGSGVREEYAPPKVLC

T6: peptide A9 (… with Ala at position 5, Y3 of the epitope) (human)
T6 construct: The label A9 and position 5 follow from 'Peptides A2-A13 contained a single alanine substitution at each amino acid position from 12 to 1 respectively'
T6 peptide: Biotin-SGSGVREEAFPPKVLC

T7: peptide 23 (33 mer, full length of the 2nd extracellular loop of hC5aR) (human, N-terminal biotin)
T7 construct: also called peptide no; 23
T7 peptide: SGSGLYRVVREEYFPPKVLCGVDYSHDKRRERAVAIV

B1: mouse anti-C5aR monoclonal antibody 7F3 (antibody, V domains shown)
VH: QVQLQQSGPELVKPGASVKISCKASGYAFSNSWMNWVKQRPGKGLEWIGRIYPGDGDTKYNGKFKGKATLTADKSSSTAYMQLSSLTSEDSAVYFCARFLLISTVTAVDYWGQGTTLTVSS
VL: DVVMTQSPLSLPVSLGNQASISCRSSQSLVHSNGNTYLHWYLQKPGQSPKLLIYKVSNRFSGVPDRFSGSGSGTDFSLKISRVEAEDLGVYFCSQSTLVPLTFGAGTKLELK
notes: Mouse monoclonal from hybridoma ECACC 00110609; also called m7F3; mouse 7F3
B2: humanized anti-C5aR antibody hAb-J (antibody, human IgG4 S228P, kappa)
light: DVVMTQSPLSLPVTLGEPASISCRSSQSLVHSNGNTYLHWYLQKPGQSPQLLIYKVSNRFSGVPDRFSGSGSGTDFTLKISRVEAEDVGVYFCSQSTLVPLTFGQGTKLEIKTVAAPSVFIFPPSDEQLKSGTASVVCLLNNFYPREAKVQWKVDNALQSGNSQESVTEQDSKDSTYSLSSTLTLSKADYEKHKVYACEVTHQGLSSPVTKSFNRGEC
heavy: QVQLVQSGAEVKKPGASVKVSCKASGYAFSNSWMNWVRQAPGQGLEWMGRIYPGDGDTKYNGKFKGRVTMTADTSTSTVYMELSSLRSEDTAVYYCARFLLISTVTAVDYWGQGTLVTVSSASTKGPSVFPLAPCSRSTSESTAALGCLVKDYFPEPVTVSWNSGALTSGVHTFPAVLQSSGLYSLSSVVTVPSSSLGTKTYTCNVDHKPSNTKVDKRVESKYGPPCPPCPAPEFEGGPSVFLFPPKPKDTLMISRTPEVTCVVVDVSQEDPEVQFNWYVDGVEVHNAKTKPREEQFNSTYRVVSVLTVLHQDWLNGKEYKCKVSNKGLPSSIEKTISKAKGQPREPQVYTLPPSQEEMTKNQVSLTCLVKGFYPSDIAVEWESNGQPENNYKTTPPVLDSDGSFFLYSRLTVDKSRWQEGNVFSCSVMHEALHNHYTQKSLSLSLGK
notes: also called antibody J
B3: humanized anti-C5aR antibody hAb-Q (antibody, human IgG4 S228P, kappa)
light: DVVMTQSPLSLPVTLGEPASISCRSSQSLVHSNGNTYLHWYLQKPGQSPQLLIYKVSNRFSGVPDRFSGSGSGTDFTLKISRVEAEDVGVYFCSQSTLVPLTFGQGTKLEIKRTVAAPSVFIFPPSDEQLKSGTASVVCLLNNFYPREAKVQWKVDNALQSGNSQESVTEQDSKDSTYSLSSTLTLSKADYEKHKVYACEVTHQGLSSPVTKSFNRGEC
heavy: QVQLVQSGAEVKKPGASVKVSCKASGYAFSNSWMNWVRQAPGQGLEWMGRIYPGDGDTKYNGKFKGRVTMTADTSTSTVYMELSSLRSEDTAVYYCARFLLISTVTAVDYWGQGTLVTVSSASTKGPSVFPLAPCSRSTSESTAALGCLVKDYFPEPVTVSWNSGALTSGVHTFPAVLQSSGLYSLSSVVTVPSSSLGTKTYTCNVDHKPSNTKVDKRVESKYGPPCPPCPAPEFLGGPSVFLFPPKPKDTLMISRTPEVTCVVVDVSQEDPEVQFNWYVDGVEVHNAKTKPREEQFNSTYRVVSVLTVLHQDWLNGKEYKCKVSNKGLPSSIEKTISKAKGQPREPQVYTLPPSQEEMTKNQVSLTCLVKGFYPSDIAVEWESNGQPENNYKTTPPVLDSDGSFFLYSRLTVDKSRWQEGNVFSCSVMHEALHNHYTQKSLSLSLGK
notes: IgG4 with the Ser228Pro mutation; also called antibody Q; anti-C5aR ab

Tests used:
human C5a receptor [1] = biological target: T1, human C5a receptor; assay: saturation binding to human neutrophils at 4 C, flow cytometry
Protocol: Human neutrophils, isolated as described above, were resuspended in dPBS and 1×10⁵ cells (in 25 μl) were dispensed into wells of a 96-well plate. An equal volume (25 μl) of 2× antibody (diluted in PBS) was added to each well. The final antibody concentration using 2-fold serial dilution ranged from 40 to 0 ug/ml (using unlabelled hAb-Q, hAb-J and 7F3). Cells and antibody were incubated for 20 min times at 4° C. After incubation, 100 μl PBS+1% BCS was added to each well and the plate centrifuged at 2,000 rpm for 3 min. […] The cells were washed once as above and resuspended in PBS+1% FCS for analysis by flow cytometry. FSC v SSC scatter was used to identify neutrophils, with the Median Fluorescence Intensity (MFI) determined for each sample. EC50 values were determined by fitting data (MFI—background vs log₁₀[antibody concentration]) to the sigmoidal dose-response (variable slope) i.e. 4-parameter logistic equation using GraphPad Prism (v4.0) software. Bₘₐₓ and KD were determined by fitting data to the one-site binding hyperbola equation.

[2] = biological target: T2, peptide 7 (12 mer from the 2nd …); assay: peptide ELISA, biotin peptide on streptavidin plate
Description: (§1) A set of 22 overlapping peptides (12 mers), each offset by 1 residue from the next, spanning the second extracellular loop (3rd extracellular domain) of human C5aR was synthesised (Mimotopes, Melbourne). Each peptide was made with a biotin group and 4-amino acid linker (SGSG) at its N-terminus. One peptide synthesised, no. 23, was a 33 mer, representing the full length of the 2nd extracellular loop of hC5aR (residues 173-205 from SEQ ID NO:37), also had biotin-SGSG at the N-terminus.
(§2) The experiment was conducted by binding the peptides to a 384-well streptavidin-coated plate then incubating the antibodies with the peptides and detecting bound antibody with an anti-mouse IgG conjugated to horse radish peroxidase (HRP) as follows. Each peptide was dissolved in 200 μl of 60% DMSO to a concentration of 10 mg/ml. Peptides were further diluted 1:1000 to a working strength of 10 μg/ml with PBS/Tween 20/azide solution (0.1% w/v sodium azide in PBS/0.05% Tween 20).
(§3) A 384 well streptavidin-coated plate (Nunc) was blocked with 20 μl of blocking buffer (1% w/v BSA in PBS) per well. The plate was washed 4 times with PBS/Tween20 buffer (0.1% v/v Tween 20 in PBS). 20 μl of diluted peptide solution was transferred into a well and the plate incubated for 1 hour at room temperature. After washing the plate 4 times (as above) 20 μl antibody (0.5, 1, 1.25, 2.5 or 5 μg/ml) was added to the well and the plate was incubated for 1 hour at 20° C. The plate was washed 4 times as above then 20 μlHRP-conjugated anti-mouse IgG (1:5000 dilution in PBS/Tween 20) was added to each well. After a 1 hour incubation at room temperature the plate was washed 3 times (as above) then twice with PBS to remove traces of Tween. The presence of peroxidase was detected by adding 20 μl of freshly prepared TMB Substrate reagent (BD Opt EIA) to each well and incubating at room temperature for 20 min. Finally the plate was read at 650 nm/450 nm.

[3] = biological target: T3, peptide 4 (12 mer from the 2nd …); assay: as above
Description: as §1, §2, §3

[4] = biological target: T4, peptide 3 (12 mer from the 2nd …); assay: as above
Description: as §1, §2, §3

[5] = biological target: T5, peptide A8 (… with Ala at position 6, …); assay: peptide ELISA, alanine-scan peptides
Protocol: as §3
(§4) Peptide A1 had no A1a substitution and peptide A14 was a scrambled version of peptide A1. Peptides A2-A13 contained a single alanine substitution at each amino acid position from 12 to 1 respectively. Binding of antibodies to the peptides coated on ELISA plates was carried out as described above.

[6] = biological target: T6, peptide A9 (… with Ala at position 5, …); assay: peptide ELISA, alanine-scan peptides
Protocol: as §3, §4

[7] = biological target: T7, peptide 23 (33 mer, full length of the …); assay: peptide ELISA, biotin peptide on streptavidin plate
Description: as §1, §2, §3

human C5a receptor [8] = biological target: T1, human C5a receptor; assay: cell-based or functional assay

| Binder | EC50 (human C5a receptor [1]) | Kd (human C5a receptor [1]) | binding result [2] | binding result [3] | binding result [4] | binding result [5] | binding result [6] | binding result [7] | Ab conc. tested but not effective at blocking Ca2+-flux (human neutrophils, 1 nM C5a) (human C5a receptor [8]) |
| --- | --- | --- | --- | --- | --- | --- | --- | --- | --- |
| B1 | 8 to 10 nM | 8 to 10 nM | binds | binds | binds | – | – | – | – |
| B2 | – | – | – | – | – | no binding | no binding | – | – |
| B3 | 20 nM to 25 nM (2×) and ~3 µg/mL | 20 nM to 25 nM (2×) and ~3 µg/mL | binds | binds | binds | no binding | no binding | binds | 0.5 µg/mL |
